Assay results reported in article PMC5755487, “Combining Chemical Cross-linking and Mass Spectrometry of Intact Protein Complexes to Study the Architecture of Multi-subunit Protein Assemblies” (Journal of Visualized Experiments : JoVE, 2017).
“And” between values parts separate entries of the source, which are not always exact repeats. Equal entries are not always repeated.

B1: large subunit of carbamoyl phosphate synthase (CPS) from Escherichia coli (enzyme)
chain: MPKRTDIKSILILGAGPIVIGQACEFDYSGAQACKALREEGYRVILVNSNPATIMTDPEMADATYIEPIHWEVVRKIIEKERPDAVLPTMGGQTALNCALELERQGVLEEFGVTMIGATADAIDKAEDRRRFDVAMKKIGLETARSGIAHTMEEALAVAADVGFPCIIRPSFTMGGSGGGIAYNREEFEEICARGLDLSPTKELLIDESLIGWKEYEMEVVRDKNDNCIIVCSIENFDAMGIHTGDSITVAPAQTLTDKEYQIMRNASMAVLREIGVETGGSNVQFAVNPKNGRLIVIEMNPRVSRSSALASKATGFPIAKVAAKLAVGYTLDELMNDITGGRTPASFEPSIDYVVTKIPRFNFEKFAGANDRLTTQMKSVGEVMAIGRTQQESLQKALRGLEVGATGFDPKVSLDDPEALTKIRRELKDAGADRIWYIADAFRAGLSVDGVFNLTNIDRWFLVQIEELVRLEEKVAEVGITGLNADFLRQLKRKGFADARLAKLAGVREAEIRKLRDQYDLHPVYKRVDTCAAEFATDTAYMYSTYEEECEANPSTDREKIMVLGGGPNRIGQGIEFDYCCVHASLALREDGYETIMVNCNPETVSTDYDTSDRLYFEPVTLEDVLEIVRIEKPKGVIVQYGGQTPLKLARALEAAGVPVIGTSPDAIDRAEDRERFQHAVERLKLKQPANATVTAIEMAVEKAKEIGYPLVVRPSYVLGGRAMEIVYDEADLRRYFQTAVSVSNDAPVLLDHFLDDAVEVDVDAICDGEMVLIGGIMEHIEQAGVHSGDSACSLPAYTLSQEIQDVMRQQVQKLAFELQVRGLMNVQFAVKNNEVYLIEVNPRAARTVPFVSKATGVPLAKVAARVMAGKSLAEQGVTKEVIPPYYSVKEVVLPFNKFPGVDPLLGPEMRSTGEVMGVGRTFAEAFAKAQLGSNSTMKKHGRALLSVREGDKERVVDLAAKLLKQGFELDATHGTAIVLGEAGINPRLVNKVHEGRPHIQDRIKNGEYTYIINTTSGRRAIEDSRVIRRSALQYKVHYDTTLNGGFATAMALNADATEKVISVQEMHAQIK
notes: carbamoyl phosphate synthase large subunit, Escherichia coli; also called large CPS subunit

Key:
[1] = molecular target: RvB2 subunit of the RvB1/B2 complex from Chaetomium thermophilum (Chaetomium thermophilum); assay: native MS; purified complex exchanged into 200 mM ammonium acetate, nano-electrospray, Q-ToF instrument; intact complexes and sub-complexes
[2] = molecular target: the molecule itself; assay: cross-linking; purified complex with BS3 (0.5-5 mM titrated), 25 °C, 1 h; SDS-PAGE, in-gel trypsin digestion, LC-MS/MS, pLink search
[3] = molecular target: B1; assay: native MS; purified complex exchanged into 200 mM ammonium acetate, nano-electrospray, Q-ToF instrument; intact complexes and sub-complexes; details: both partners purified

## RvB1 subunit of the RvB1/B2 complex from Chaetomium thermophilum (natural protein)
[1]
  stoichiometry N (RvB1 per RvB2 (3:3)): 1
  stoichiometry N (RvB1 per RvB2 (6:6)): 1

## B1
[2]
  binding result: binds

B2: small subunit of carbamoyl phosphate synthase (CPS) from Escherichia coli (enzyme)
chain: MIKSALLVLEDGTQFHGRAIGATGSAVGEVVFNTSMTGYQEILTDPSYSRQIVTLTYPHIGNVGTNDADEESSQVHAQGLVIRDLPLIASNFRNTEDLSSYLKRHNIVAIADIDTRKLTRLLREKGAQNGCIIAGDNPDAALALEKARAFPGLNGMDLAKEVTTAEAYSWTQGSWTLTGGLPEAKKEDELPFHVVAYDFGAKRNILRMLVDRGCRLTIVPAQTSAEDVLKMNPDGIFLSNGPGDPAPCDYAITAIQKFLETDIPVFGICLGHQLLALASGAKTVKMKFGHHGGNHPVKDVEKNVVMITAQNHGFAVDEATLPANLRVTHKSLFDGTLQGIHRTDKPAFSFQGHPEASPGPHDAAPLFDHFIELIEQYRKTAK
notes: carbamoyl phosphate synthase small subunit, Escherichia coli; also called small CPS subunit
[3]
  stoichiometry N: 1 small per large subunit (1:1) and 1 small per large subunit (2:2)
